The values below come from publication PMC6342527.

Assay in all cases: cryo-EM structure; single-particle cryo-EM of SEC-purified channel in 20 mM Tris pH 7.5, 50 mM NaCl, 1 mM DDM, 0.1 mM CHS; 1 uM CaCl2 added (Ca2+-bound); homopentamer
In test [1] the target is chicken BEST1, residues 1-345 (BEST1_(345)) (chicken).
Test [2] concerns the target chicken BEST1, residues 1-345, W287F mutant (BEST1_(345) W287F) (chicken).
In test [3] the target is chicken BEST1, residues 1-405 (BEST1_(405)) (chicken).

In test [1], “chicken BEST1, residues 1-345 (BEST1_(345)) (domain or fragment)” returned a stoichiometry N of 5.
In test [2], “chicken BEST1, residues 1-345, W287F mutant (BEST1_(345) W287F) (domain or fragment)” had a stoichiometry N of 5.
“chicken BEST1, residues 1-405 (BEST1_(405)) (domain or fragment)” came in with a stoichiometry N in test [3] of 5.
